Like-named read-outs stand apart in the source and are kept apart here.
Key:
Assay in all cases: cell-based or functional assay
[1] = biological target: SARS-CoV-2 Alpha (B.1.1.7) spike (S) protein (SARS-CoV-2) (UniProt P0DTC2)
[2] = biological target: SARS-CoV-2 Alpha spike (S) protein (SARS-CoV-2) (UniProt P0DTC2)
[3] = biological target: SARS-CoV-2 Beta (B.1.351) spike (S) protein (SARS-CoV-2) (UniProt P0DTC2)
[4] = biological target: SARS-CoV-2 Beta spike (S) protein (SARS-CoV-2) (UniProt P0DTC2)
[5] = biological target: SARS-CoV-2 Delta spike (S) protein (SARS-CoV-2) (UniProt P0DTC2)
[6] = biological target: SARS-CoV-2 Gamma (P.1) spike (S) protein (SARS-CoV-2) (UniProt P0DTC2)
[7] = biological target: SARS-CoV-2 Gamma spike (S) protein (SARS-CoV-2) (UniProt P0DTC2)
[8] = biological target: SARS-CoV-2 Omicron (BA.1) spike (S) protein, live virus isolate (SARS-CoV-2) (UniProt P0DTC2)
[9] = biological target: SARS-CoV-2 Omicron BA.1 spike (S) protein of the live isolate (SARS-CoV-2) (UniProt P0DTC2)
[10] = biological target: SARS-CoV-2 Omicron BA.1 spike (S) protein of the pseudovirus (SARS-CoV-2) (UniProt P0DTC2)
[11] = biological target: SARS-CoV-2 Omicron BA.1 spike (S) protein, pseudovirus construct (SARS-CoV-2) (UniProt P0DTC2)
[12] = biological target: SARS-CoV-2 Omicron BA.1.1 spike (S) protein (SARS-CoV-2) (UniProt P0DTC2)
[13] = biological target: SARS-CoV-2 Omicron BA.1.1 spike (S) protein, pseudovirus construct (SARS-CoV-2) (UniProt P0DTC2)
[14] = biological target: SARS-CoV-2 Omicron BA.2 spike (S) protein (SARS-CoV-2) (UniProt P0DTC2)
[15] = biological target: SARS-CoV-2 Omicron BA.2 spike (S) protein, pseudovirus construct (SARS-CoV-2) (UniProt P0DTC2)
[16] = biological target: SARS-CoV-2 Omicron BA.3 spike (S) protein (SARS-CoV-2) (UniProt P0DTC2)
[17] = biological target: SARS-CoV-2 Omicron BA.3 spike (S) protein, pseudovirus construct (SARS-CoV-2) (UniProt P0DTC2)
[18] = biological target: SARS-CoV-2 Omicron BA.4/5 spike (S) protein (SARS-CoV-2) (UniProt P0DTC2)
[19] = biological target: SARS-CoV-2 Victoria spike (S) protein (SARS-CoV-2) (UniProt P0DTC2)
[20] = biological target: SARS-CoV-2 spike (S) protein, Omicron BA.1 (SARS-CoV-2) (UniProt P0DTC2)
[21] = biological target: SARS-CoV-2 spike (S) protein, Omicron BA.1.1 (SARS-CoV-2) (UniProt P0DTC2)
[22] = biological target: SARS-CoV-2 spike (S) protein, Omicron BA.2 (SARS-CoV-2) (UniProt P0DTC2)
[23] = biological target: SARS-CoV-2 spike (S) protein, Omicron BA.2.75 (SARS-CoV-2) (UniProt P0DTC2)
[24] = biological target: SARS-CoV-2 spike (S) protein, Omicron BA.3 (SARS-CoV-2) (UniProt P0DTC2)
[25] = biological target: SARS-CoV-2 spike (S) protein, Omicron BA.4/5 (SARS-CoV-2) (UniProt P0DTC2)
[26] = biological target: SARS-CoV-2 spike (S) protein, Victoria strain (SARS-CoV-2) (UniProt P0DTC2)
[27] = biological target: SARS-CoV-2 spike (S) protein, Omicron BA.2 (SARS-CoV-2) (UniProt P0DTC2); remark: listed apart in the source
[28] = biological target: SARS-CoV-2 spike (S) protein, Omicron BA.2.75 (SARS-CoV-2) (UniProt P0DTC2); remark: listed apart in the source
[29] = biological target: SARS-CoV-2 spike (S) protein, Omicron BA.2 (SARS-CoV-2) (UniProt P0DTC2); remark: listed apart in the source
[30] = biological target: SARS-CoV-2 spike (S) protein, Omicron BA.2.3.20 (SARS-CoV-2) (UniProt P0DTC2)
[31] = biological target: SARS-CoV-2 spike (S) protein, Omicron BA.2.75 (SARS-CoV-2) (UniProt P0DTC2); remark: listed apart in the source
[32] = biological target: SARS-CoV-2 spike (S) protein, Omicron BA.2.75.2 (SARS-CoV-2) (UniProt P0DTC2)
[33] = biological target: SARS-CoV-2 spike (S) protein, Omicron BA.4.6 (SARS-CoV-2) (UniProt P0DTC2)
[34] = biological target: SARS-CoV-2 spike (S) protein, Omicron BA.4/5 (SARS-CoV-2) (UniProt P0DTC2); remark: listed apart in the source
[35] = biological target: SARS-CoV-2 spike (S) protein, Omicron BJ.1 (SARS-CoV-2) (UniProt P0DTC2)
[36] = biological target: SARS-CoV-2 spike (S) protein, Victoria strain (SARS-CoV-2) (UniProt P0DTC2); remark: listed apart in the source

Chain of Omi-42 (antibody) (VH): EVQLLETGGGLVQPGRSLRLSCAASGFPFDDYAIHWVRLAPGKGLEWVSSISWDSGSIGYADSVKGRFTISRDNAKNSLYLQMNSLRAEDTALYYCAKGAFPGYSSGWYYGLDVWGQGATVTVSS
Chain of Omi-42 (antibody) (VL): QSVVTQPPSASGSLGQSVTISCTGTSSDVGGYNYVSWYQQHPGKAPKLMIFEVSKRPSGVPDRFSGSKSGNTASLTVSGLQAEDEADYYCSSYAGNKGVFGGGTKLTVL
Chain of Omi-12 (antibody) (VH): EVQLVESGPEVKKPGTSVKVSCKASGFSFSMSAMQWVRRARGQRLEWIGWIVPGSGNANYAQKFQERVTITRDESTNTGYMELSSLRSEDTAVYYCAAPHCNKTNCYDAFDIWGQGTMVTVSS
Chain of Omi-12 (antibody) (VL): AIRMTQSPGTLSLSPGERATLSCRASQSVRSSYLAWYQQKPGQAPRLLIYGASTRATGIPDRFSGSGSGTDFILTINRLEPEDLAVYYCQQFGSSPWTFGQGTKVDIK
Chain of Omi-18 (antibody) (VH): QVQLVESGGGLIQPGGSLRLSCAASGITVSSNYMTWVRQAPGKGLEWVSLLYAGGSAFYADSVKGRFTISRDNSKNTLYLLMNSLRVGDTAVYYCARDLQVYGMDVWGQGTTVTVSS
Chain of Omi-18 (antibody) (VL): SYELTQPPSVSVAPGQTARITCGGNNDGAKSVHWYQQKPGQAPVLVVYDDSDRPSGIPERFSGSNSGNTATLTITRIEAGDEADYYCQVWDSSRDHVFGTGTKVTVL

Omi-18 (antibody)
4800 ng/mL: IC50, pseudoviral neutralization [32]
5 ng/mL: IC50, pseudovirus neutralization [14] | Pseudovirus - IC50 [15] | IC50, pseudovirus neutralization [18] | pseudovirus neutralisation IC50 [22] | pseudovirus neutralisation IC50 [25] | pseudovirus neutralisation IC50 [27] | IC50, pseudoviral neutralization [29] | IC50, pseudoviral neutralization [34] | IC50, pseudoviral neutralization [35]
41 ng/mL: Authentic virus-IC50 [19] | IC50, authentic virus neutralization [19]
16 ng/mL: Authentic virus-IC50 [6] | IC50, authentic virus neutralization [7]
11 ng/mL: IC50, pseudoviral neutralization [30]
8 ng/mL: IC50, pseudovirus neutralization [19] | Pseudovirus - IC50 [19] | pseudovirus neutralisation IC50 [26] | IC50, pseudoviral neutralization [36]
6 ng/mL: Authentic virus-IC50 [8] | IC50, authentic virus neutralization [9] | IC50, authentic virus neutralization [12] | IC50, pseudovirus neutralization [16] | Pseudovirus - IC50 [17] | pseudovirus neutralisation IC50 [24] | IC50, pseudoviral neutralization [33]
38 ng/mL: Authentic virus-IC50 [1] | IC50, authentic virus neutralization [2]
25 ng/mL: Authentic virus-IC50 [5] | IC50, authentic virus neutralization [5]
7 ng/mL: IC50, authentic virus neutralization [14]
35 ng/mL: pseudovirus neutralisation IC50 [23] | pseudovirus neutralisation IC50 [28] | IC50, pseudoviral neutralization [31]
2 ng/mL: IC50, pseudovirus neutralization [10] | Pseudovirus - IC50 [11] | IC50, pseudovirus neutralization [12] | Pseudovirus - IC50 [13] | pseudovirus neutralisation IC50 [20] | pseudovirus neutralisation IC50 [21]
18 ng/mL: Authentic virus-IC50 [3] | IC50, authentic virus neutralization [4]

Omi-12 (antibody)
4 ng/mL: Authentic virus-IC50 [8] | IC50, authentic virus neutralization [9] | IC50, pseudoviral neutralization [35]
429 ng/mL: IC50, pseudovirus neutralization [18] | pseudovirus neutralisation IC50 [25] | IC50, pseudoviral neutralization [34]
5 ng/mL: Authentic virus-IC50 [19] | IC50, authentic virus neutralization [19]
10 ng/mL: IC50, authentic virus neutralization [14]
9 ng/mL: IC50, authentic virus neutralization [12]
> 10000 ng/mL: IC50, pseudoviral neutralization [32]
3 ng/mL: Authentic virus-IC50 [1] | IC50, authentic virus neutralization [2] | Authentic virus-IC50 [5] | IC50, authentic virus neutralization [5] | Authentic virus-IC50 [6] | IC50, authentic virus neutralization [7] | IC50, pseudovirus neutralization [14] | Pseudovirus - IC50 [15] | pseudovirus neutralisation IC50 [22] | pseudovirus neutralisation IC50 [23] | pseudovirus neutralisation IC50 [27] | pseudovirus neutralisation IC50 [28] | IC50, pseudoviral neutralization [29] | IC50, pseudoviral neutralization [31]
2 ng/mL: IC50, pseudovirus neutralization [10] | Pseudovirus - IC50 [11] | IC50, pseudovirus neutralization [12] | Pseudovirus - IC50 [13] | pseudovirus neutralisation IC50 [20] | pseudovirus neutralisation IC50 [21]
8 ng/mL: IC50, pseudoviral neutralization [30]
74 ng/mL: IC50, pseudoviral neutralization [33]
6 ng/mL: Authentic virus-IC50 [3] | IC50, authentic virus neutralization [4] | IC50, pseudovirus neutralization [16] | Pseudovirus - IC50 [17] | IC50, pseudovirus neutralization [19] | Pseudovirus - IC50 [19] | pseudovirus neutralisation IC50 [24] | pseudovirus neutralisation IC50 [26] | IC50, pseudoviral neutralization [36]

Omi-42 (antibody)
6 ng/mL: IC50, pseudovirus neutralization [12] | Pseudovirus - IC50 [13] | pseudovirus neutralisation IC50 [21]
3 ng/mL: pseudovirus neutralisation IC50 [23] | pseudovirus neutralisation IC50 [28] | IC50, pseudoviral neutralization [31]
21 ng/mL: IC50, pseudovirus neutralization [14] | Pseudovirus - IC50 [15] | pseudovirus neutralisation IC50 [22] | pseudovirus neutralisation IC50 [27] | IC50, pseudoviral neutralization [29]
25 ng/mL: IC50, pseudovirus neutralization [16] | Pseudovirus - IC50 [17] | pseudovirus neutralisation IC50 [24]
31 ng/mL: IC50, authentic virus neutralization [14]
10 ng/mL: IC50, pseudoviral neutralization [33] | IC50, pseudoviral neutralization [35]
24 ng/mL: Authentic virus-IC50 [1] | IC50, authentic virus neutralization [2]
17 ng/mL: IC50, authentic virus neutralization [12]
16 ng/mL: Authentic virus-IC50 [19] | IC50, authentic virus neutralization [19]
13 ng/mL: Authentic virus-IC50 [6] | IC50, authentic virus neutralization [7] | IC50, pseudovirus neutralization [18] | IC50, pseudovirus neutralization [19] | Pseudovirus - IC50 [19] | pseudovirus neutralisation IC50 [25] | pseudovirus neutralisation IC50 [26] | IC50, pseudoviral neutralization [34] | IC50, pseudoviral neutralization [36]
7 ng/mL: IC50, pseudovirus neutralization [10] | Pseudovirus - IC50 [11] | pseudovirus neutralisation IC50 [20]
14 ng/mL: Authentic virus-IC50 [8] | IC50, authentic virus neutralization [9]
18 ng/mL: IC50, pseudoviral neutralization [30]
19 ng/mL: Authentic virus-IC50 [5] | IC50, authentic virus neutralization [5]
11 ng/mL: Authentic virus-IC50 [3] | IC50, authentic virus neutralization [4] | IC50, pseudoviral neutralization [32]

Source: patent US20250154231A1
